B1: Emerin (Homo sapiens), P50402 (parent)
chain: MDNYADLSDTELTTLLRRYNIPHGPVVGSTRRLYEKKIFEYETQRRRLSPPSSSAASSYSFSDLNSTRGDADMYDLPKKEDALLYQSKGYNDDYYEESYFTTRTYGEPESAGPSRAVRQSVTSFPDADAFHHQVHDDDLLSSSEEECKDRERPMYGRDSAYQSITHYRPVSASRSSLDLSYYPTSSSTSFMSSSSSSSSWLTRRAIRPENRAPGAGLGQDRQVPLWGQLLLFLVFVIVLFFIYHFMQAEEGNPF
B2: PiggyBac transposable element-derived protein 1 (Homo sapiens), Q96JS3 (parent)
chain: MYEALPGPAPENEDGLVKVKEEDPTWEQVCNSQEGSSHTQEICRLRFRHFCYQEAHGPQEALAQLRELCHQWLRPEMHTKEQIMELLVLEQFLTILPKELQPCVKTYPLESGEEAVTVLENLETGSGDTGQQASVYIQGQDMHPMVAEYQGVSLECQSLQLLPGITTLKCEPPQRPQGNPQEVSGPVPHGSAHLQEKNPRDKAVVPVFNPVRSQTLVKTEEETAQAVAAEKWSHLSLTRRNLCGNSAQETVMSLSPMTEEIVTKDRLFKAKQETSEEMEQSGEASGKPNRECAPQIPCSTPIATERTVAHLNTLKDRHPGDLWARMHISSLEYAAGDITRKGRKKDKARVSELLQGLSFSGDSDVEKDNEPEIQPAQKKLKVSCFPEKSWTKRDIKPNFPSWSALDSGLLNLKSEKLNPVELFELFFDDETFNLIVNETNNYASQKNVSLEVTVQEMRCVFGVLLLSGFMRHPRREMYWEVSDTDQNLVRDAIRRDRFELIFSNLHFADNGHLDQKDKFTKLRPLIKQMNKNFLLYAPLEEYYCFDKSMCECFDSDQFLNGKPIRIGYKIWCGTTTQGYLVWFEPYQEESTMKVDEDPDLGLGGNLVMNFADVLLERGQYPYHLCFDSFFTSVKLLSALKKKGVRATGTIRENRTEKCPLMNVEHMKKMKRGYFDFRIEENNEIILCRWYGDGIISLCSNAVGIEPVNEVSCCDADNEEIPQISQPSIVKVYDECKEGVAKMDQIISKYRVRIRSKKWYSILVSYMIDVAMNNAWQLHRACNPGASLDPLDFRRFVAHFYLEHNAHLSD
partner: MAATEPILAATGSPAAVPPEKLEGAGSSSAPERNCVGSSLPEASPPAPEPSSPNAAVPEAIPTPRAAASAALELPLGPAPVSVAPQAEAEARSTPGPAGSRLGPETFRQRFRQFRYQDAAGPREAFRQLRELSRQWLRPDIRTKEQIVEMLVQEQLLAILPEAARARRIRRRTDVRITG
B3: N-chimaerin (Homo sapiens), P15882 (parent)
chain: MALTLFDTDEYRPPVWKSYLYQLQQEAPHPRRITCTCEVENRPKYYGREFHGMISREAADQLLIVAEGSYLIRESQRQPGTYTLALRFGSQTRNFRLYYDGKHFVGEKRFESIHDLVTDGLITLYIETKAAEYIAKMTINPIYEHVGYTTLNREPAYKKHMPVLKETHDERDSTGQDGVSEKRLTSLVRRATLKENEQIPKYEKIHNFKVHTFRGPHWCEYCANFMWGLIAQGVKCADCGLNVHKQCSKMVPNDCKPDLKHVKKVYSCDLTTLVKAHTTKRPMVVDMCIREIESRGLNSEGLYRVSGFSDLIEDVKMAFDRDGEKADISVNMYEDINIITGALKLYFRDLPIPLITYDAYPKFIESAKIMDPDEQLETLHEALKLLPPAHCETLRYLMAHLKRVTLHEKENLMNAENLGIVFGPTLMRSPELDAMAALNDIRYQRLVVELLIKNEDILF

Variants of: B1
Details: with vapb_human VAPB

**Q.** With MDNYADLSDTELTTLLRRYNIPHGPVVGSTRRLYEKKIFEYETQRRRLSPPSSSAASSYSFSDLNSTRGDADMYDLPKKEDALLYQSKGYNDDYYEESYFTTRTYGEPESAGPSRAVRQSVTSFPDADAFHHQVHDDDLLSSSEEECKDRERPMYGRDSAYQSITHYRPVSASRSSLDLSYYTTSSSTSFMSSSSSSSSWLTRRAIRPENRAPGAGLGQDRQVPLWGQLLLFLVFVIVLFFIYHFMQAEEGNPF [P183T] as the variant, how does the “effect of a mutation on the interaction” value read?
**A.** The value was “with no effect”.

**Q.** How did the “effect of a mutation on the interaction” value turn out when MDNYADLSDTELTTLLRRYNIPHGPVVGSTRRLYEKKIFEYETQRRRLSPPSSSAASSYSFSDLNSTRGDAVMYDLPKKEDALLYQSKGYNDDYYEESYFTTRTYGEPESAGPSRAVRQSVTSFPDADAFHHQVHDDDLLSSSEEECKDRERPMYGRDSAYQSITHYRPVSASRSSLDLSYYPTSSSTSFMSSSSSSSSWLTRRAIRPENRAPGAGLGQDRQVPLWGQLLLFLVFVIVLFFIYHFMQAEEGNPF [D72V] was run?
**A.** The value was “with no effect”.

Variants of: B1
Details: with tri42_human TRIM42, Q8IWZ5
Sequence of tri42_human TRIM42, Q8IWZ5 (Q8IWZ5 whole entry): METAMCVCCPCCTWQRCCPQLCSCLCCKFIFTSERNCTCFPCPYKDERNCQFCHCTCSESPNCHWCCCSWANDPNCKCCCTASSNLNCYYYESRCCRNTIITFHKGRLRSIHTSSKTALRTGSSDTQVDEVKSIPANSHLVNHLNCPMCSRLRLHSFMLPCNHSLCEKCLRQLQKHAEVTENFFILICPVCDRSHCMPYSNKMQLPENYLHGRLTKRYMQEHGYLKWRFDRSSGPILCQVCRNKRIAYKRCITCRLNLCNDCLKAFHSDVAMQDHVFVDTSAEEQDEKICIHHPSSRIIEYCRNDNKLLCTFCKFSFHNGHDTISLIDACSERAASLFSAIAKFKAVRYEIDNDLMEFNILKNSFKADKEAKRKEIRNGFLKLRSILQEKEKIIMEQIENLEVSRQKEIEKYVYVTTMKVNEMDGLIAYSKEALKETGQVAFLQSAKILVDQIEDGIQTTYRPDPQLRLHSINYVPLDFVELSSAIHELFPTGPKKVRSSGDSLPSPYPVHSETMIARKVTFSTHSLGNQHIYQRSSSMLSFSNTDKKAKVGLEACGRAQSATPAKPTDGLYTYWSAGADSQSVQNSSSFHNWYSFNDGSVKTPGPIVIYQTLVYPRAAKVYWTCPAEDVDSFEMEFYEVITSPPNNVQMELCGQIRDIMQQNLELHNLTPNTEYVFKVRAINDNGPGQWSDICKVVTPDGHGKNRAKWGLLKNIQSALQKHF

**Q.** With MDNYADLSDTELTTLLRRYNIPHGPVVGSTRRLYEKKIFEYETQRRRLSPPSSSAASSYSFSDLNSTRGDADMYDLPKKEDALLYQSKGYNDDYYEESYFTTRTYGEPESAGPSRAVRQSVTSFPDADAFHHQVHDDDLLSSSEEECKDRERPMYGRDSAYQSITHYRPVSASRSSLDLSYYTTSSSTSFMSSSSSSSSWLTRRAIRPENRAPGAGLGQDRQVPLWGQLLLFLVFVIVLFFIYHFMQAEEGNPF [P183T] as the variant, how does the “effect of a mutation on the interaction” value read?
**A.** Its value is “with no effect”.

**Q.** MDNYADLSDTELTTLLRRYNIPHGPVVGSTRRLYEKKIFEYETQRRRLSPPSSSAASSYSFSDLNSTRGDAVMYDLPKKEDALLYQSKGYNDDYYEESYFTTRTYGEPESAGPSRAVRQSVTSFPDADAFHHQVHDDDLLSSSEEECKDRERPMYGRDSAYQSITHYRPVSASRSSLDLSYYPTSSSTSFMSSSSSSSSWLTRRAIRPENRAPGAGLGQDRQVPLWGQLLLFLVFVIVLFFIYHFMQAEEGNPF [D72V] was tested. Which “effect of a mutation on the interaction” value did it give?
**A.** The value was “with no effect”.

Variants of: B1
Details: with stx4_human STX4, Q12846
Sequence of stx4_human STX4, Q12846 (Q12846 whole entry): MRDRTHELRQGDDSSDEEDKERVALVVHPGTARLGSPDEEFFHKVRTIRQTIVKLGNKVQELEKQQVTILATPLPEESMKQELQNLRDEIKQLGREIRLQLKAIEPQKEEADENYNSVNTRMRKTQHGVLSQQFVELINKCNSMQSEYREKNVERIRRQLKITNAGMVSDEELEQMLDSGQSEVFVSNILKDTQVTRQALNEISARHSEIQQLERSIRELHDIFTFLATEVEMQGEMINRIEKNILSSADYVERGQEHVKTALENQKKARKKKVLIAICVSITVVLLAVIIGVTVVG

**Q.** How did the “effect of a mutation on the interaction” value turn out when MDNYADLSDTELTTLLRRYNIPHGPVVGSTRRLYEKKIFEYETQRRRLSPPSSSAASSYSFSDLNSTRGDADMYDLPKKEDALLYQSKGYNDDYYEESYFTTRTYGEPESAGPSRAVRQSVTSFPDADAFHHQVHDDDLLSSSEEECKDRERPMYGRDSAYQSITHYRPVSASRSSLDLSYYTTSSSTSFMSSSSSSSSWLTRRAIRPENRAPGAGLGQDRQVPLWGQLLLFLVFVIVLFFIYHFMQAEEGNPF [P183T] was run?
**A.** Its value is “with no effect”.

**Q.** For MDNYADLSDTELTTLLRRYNIPHGPVVGSTRRLYEKKIFEYETQRRRLSPPSSSAASSYSFSDLNSTRGDAVMYDLPKKEDALLYQSKGYNDDYYEESYFTTRTYGEPESAGPSRAVRQSVTSFPDADAFHHQVHDDDLLSSSEEECKDRERPMYGRDSAYQSITHYRPVSASRSSLDLSYYPTSSSTSFMSSSSSSSSWLTRRAIRPENRAPGAGLGQDRQVPLWGQLLLFLVFVIVLFFIYHFMQAEEGNPF [D72V], which “effect of a mutation on the interaction” value is on record?
**A.** The value was “with no effect”.

Variants of: B1
Details: with meox2_human MEOX2, P50222
Sequence of meox2_human MEOX2, P50222 (P50222 whole entry): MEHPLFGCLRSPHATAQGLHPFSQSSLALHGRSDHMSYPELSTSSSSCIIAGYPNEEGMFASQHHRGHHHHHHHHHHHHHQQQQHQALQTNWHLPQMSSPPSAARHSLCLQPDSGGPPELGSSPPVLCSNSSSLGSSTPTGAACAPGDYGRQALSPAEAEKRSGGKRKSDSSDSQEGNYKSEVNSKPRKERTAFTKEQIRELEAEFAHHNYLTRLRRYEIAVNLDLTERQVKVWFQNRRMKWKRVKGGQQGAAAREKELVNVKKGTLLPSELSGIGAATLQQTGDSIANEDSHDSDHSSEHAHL

**Q.** With MDNYADLSDTELTTLLRRYNIPHGPVVGSTRRLYEKKIFEYETQRRRLSPPSSSAASSYSFSDLNSTRGDADMYDLPKKEDALLYQSKGYNDDYYEESYFTTRTYGEPESAGPSRAVRQSVTSFPDADAFHHQVHDDDLLSSSEEECKDRERPMYGRDSAYQSITHYRPVSASRSSLDLSYYTTSSSTSFMSSSSSSSSWLTRRAIRPENRAPGAGLGQDRQVPLWGQLLLFLVFVIVLFFIYHFMQAEEGNPF [P183T] as the variant, how does the “effect of a mutation on the interaction” value read?
**A.** Its value is “with no effect”.

**Q.** How did the “effect of a mutation on the interaction” value turn out when MDNYADLSDTELTTLLRRYNIPHGPVVGSTRRLYEKKIFEYETQRRRLSPPSSSAASSYSFSDLNSTRGDAVMYDLPKKEDALLYQSKGYNDDYYEESYFTTRTYGEPESAGPSRAVRQSVTSFPDADAFHHQVHDDDLLSSSEEECKDRERPMYGRDSAYQSITHYRPVSASRSSLDLSYYPTSSSTSFMSSSSSSSSWLTRRAIRPENRAPGAGLGQDRQVPLWGQLLLFLVFVIVLFFIYHFMQAEEGNPF [D72V] was run?
**A.** Its value is “with no effect”.

Variants of: B1
Details: with ccd33_human CCDC33, Q8N5R6
Sequence of ccd33_human CCDC33, Q8N5R6 (Q8N5R6 whole entry): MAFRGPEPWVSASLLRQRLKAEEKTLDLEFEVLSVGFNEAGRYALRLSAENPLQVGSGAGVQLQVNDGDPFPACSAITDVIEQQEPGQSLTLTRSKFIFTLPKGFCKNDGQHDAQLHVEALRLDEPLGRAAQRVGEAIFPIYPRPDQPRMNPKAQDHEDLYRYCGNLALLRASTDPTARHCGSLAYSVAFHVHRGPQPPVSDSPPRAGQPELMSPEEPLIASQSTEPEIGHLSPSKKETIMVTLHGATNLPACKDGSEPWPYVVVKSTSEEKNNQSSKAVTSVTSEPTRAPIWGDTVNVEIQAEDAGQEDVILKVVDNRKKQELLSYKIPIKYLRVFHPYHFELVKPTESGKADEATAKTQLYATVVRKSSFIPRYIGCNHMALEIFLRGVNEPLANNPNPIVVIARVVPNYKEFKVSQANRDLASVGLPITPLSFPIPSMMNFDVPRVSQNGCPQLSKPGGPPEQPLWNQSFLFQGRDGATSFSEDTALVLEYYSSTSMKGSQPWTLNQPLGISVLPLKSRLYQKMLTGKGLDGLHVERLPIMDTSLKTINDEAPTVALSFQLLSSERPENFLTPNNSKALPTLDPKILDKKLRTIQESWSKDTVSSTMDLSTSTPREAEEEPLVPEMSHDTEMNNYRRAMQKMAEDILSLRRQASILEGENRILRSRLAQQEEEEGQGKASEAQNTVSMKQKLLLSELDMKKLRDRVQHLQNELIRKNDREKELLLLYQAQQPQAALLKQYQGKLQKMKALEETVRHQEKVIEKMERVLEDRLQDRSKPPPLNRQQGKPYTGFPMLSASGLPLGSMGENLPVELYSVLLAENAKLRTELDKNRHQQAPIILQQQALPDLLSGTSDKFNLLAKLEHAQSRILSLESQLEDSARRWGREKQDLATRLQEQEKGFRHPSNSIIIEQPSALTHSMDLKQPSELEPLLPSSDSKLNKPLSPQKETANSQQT

**Q.** Which “effect of a mutation on the interaction” value does the source give for MDNYADLSDTELTTLLRRYNIPHGPVVGSTRRLYEKKIFEYETQRRRLSPPSSSAASSYSFSDLNSTRGDADMYDLPKKEDALLYQSKGYNDDYYEESYFTTRTYGEPESAGPSRAVRQSVTSFPDADAFHHQVHDDDLLSSSEEECKDRERPMYGRDSAYQSITHYRPVSASRSSLDLSYYTTSSSTSFMSSSSSSSSWLTRRAIRPENRAPGAGLGQDRQVPLWGQLLLFLVFVIVLFFIYHFMQAEEGNPF [P183T] here?
**A.** Its value is “with no effect”.

**Q.** MDNYADLSDTELTTLLRRYNIPHGPVVGSTRRLYEKKIFEYETQRRRLSPPSSSAASSYSFSDLNSTRGDAVMYDLPKKEDALLYQSKGYNDDYYEESYFTTRTYGEPESAGPSRAVRQSVTSFPDADAFHHQVHDDDLLSSSEEECKDRERPMYGRDSAYQSITHYRPVSASRSSLDLSYYPTSSSTSFMSSSSSSSSWLTRRAIRPENRAPGAGLGQDRQVPLWGQLLLFLVFVIVLFFIYHFMQAEEGNPF [D72V] was tested. Which “effect of a mutation on the interaction” value did it give?
**A.** Its value is “with no effect”.

Variants of: B2
Details: with scnd1_human SCAND1, P57086

**Q.** Which “effect of a mutation on the interaction” value does the source give for I678V here?
**A.** The value was “with no effect”.

**Q.** Which “effect of a mutation on the interaction” value does the source give for P256L here?
**A.** Its value is “with no effect”.

**Q.** With H806D as the variant, how does the “effect of a mutation on the interaction” value read?
**A.** The value was “with no effect”.

**Q.** Which “effect of a mutation on the interaction” value does the source give for Q248E here?
**A.** Its value is “with no effect”.

**Q.** Which “effect of a mutation on the interaction” value does the source give for G244E here?
**A.** The value was “with no effect”.

Variants of: B3
Details: with nck2_human NCK2, O43639
Sequence of nck2_human NCK2, O43639 (O43639 whole entry): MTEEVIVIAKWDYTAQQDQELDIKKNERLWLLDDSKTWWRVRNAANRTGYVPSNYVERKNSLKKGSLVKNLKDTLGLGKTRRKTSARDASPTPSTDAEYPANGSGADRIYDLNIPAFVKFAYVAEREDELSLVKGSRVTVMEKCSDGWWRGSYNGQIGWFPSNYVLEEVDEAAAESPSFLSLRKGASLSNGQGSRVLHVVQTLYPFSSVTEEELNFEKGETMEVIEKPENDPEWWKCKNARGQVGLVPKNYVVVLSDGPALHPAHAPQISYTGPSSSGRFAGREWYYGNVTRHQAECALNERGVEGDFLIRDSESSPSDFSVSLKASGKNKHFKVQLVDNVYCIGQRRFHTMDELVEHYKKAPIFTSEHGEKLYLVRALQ

**Q.** MALTLFDTDEYRPPVWKSYLYQLQQEAPHPRRITCTCEVENRPKYYGREFHGMISREAADQLLIVAEGSYLIRESQRQPGTYTLALRFGSQTRNFRLYYDGKHFVGEKRFESIHDLVTDGLITLYIETKAAEYIAKMTINPIYEHVGYTTLNREPAYKKHMPVLKETHDERDSTGQDGVSEKRLTSLVRRATLKENEQIPKYEKIHNFKVHTFRGPHWCEYCANFMWGLIAQGVKCADCGLNVHKQCSKMVQNDCKPDLKHVKKVYSCDLTTLVKAHTTKRPMVVDMCIREIESRGLNSEGLYRVSGFSDLIEDVKMAFDRDGEKADISVNMYEDINIITGALKLYFRDLPIPLITYDAYPKFIESAKIMDPDEQLETLHEALKLLPPAHCETLRYLMAHLKRVTLHEKENLMNAENLGIVFGPTLMRSPELDAMAALNDIRYQRLVVELLIKNEDILF [P252Q] was tested. Which “effect of a mutation on the interaction” value did it give?
**A.** The value was “with no effect”.

**Q.** How did the “effect of a mutation on the interaction” value turn out when MALTLFDTDEYRPPVWKSYLYQLQQEAPHPRRITCTCEVENRPKYYGREFHGMISREAADQLLIVAEGSYLIRESQRQPGTYTLALRFGSQTRNFRLYYDGKHFVGEKRFESIHDLVTDGLITLYIETKAAEYIAKMTINPIYEHVGYTTLNREPAYKKHMPVLKETHDERDSTGQDGVSEKRLTSLVRRATLKENEQIPKYEKIHNFKVHTFRGPHWCEYCANFMWSLIAQGVKCADCGLNVHKQCSKMVPNDCKPDLKHVKKVYSCDLTTLVKAHTTKRPMVVDMCIREIESRGLNSEGLYRVSGFSDLIEDVKMAFDRDGEKADISVNMYEDINIITGALKLYFRDLPIPLITYDAYPKFIESAKIMDPDEQLETLHEALKLLPPAHCETLRYLMAHLKRVTLHEKENLMNAENLGIVFGPTLMRSPELDAMAALNDIRYQRLVVELLIKNEDILF [G228S] was run?
**A.** The value was “with no effect”.

**Q.** For MALTLFDTDEYRPPVWKSYLYQLQQEAPHPRRITCTCEVENRPKYYGREFHGMISREAADQLLIVAEGSYLIRESQRQPGTYTLALRFGSQTRNFRLYYDGKHFVGEKRFESIHDLVTDGLITLYIETKAAEYIAKMTINPIYEHVGYTTLNREPAYKKHMPVLKETHDERDSTGQDGVSEKRLTSLVRRATLKENEQIPKYEKIHNFKVHTFRGPHWCEYCVNFMWGLIAQGVKCADCGLNVHKQCSKMVPNDCKPDLKHVKKVYSCDLTTLVKAHTTKRPMVVDMCIREIESRGLNSEGLYRVSGFSDLIEDVKMAFDRDGEKADISVNMYEDINIITGALKLYFRDLPIPLITYDAYPKFIESAKIMDPDEQLETLHEALKLLPPAHCETLRYLMAHLKRVTLHEKENLMNAENLGIVFGPTLMRSPELDAMAALNDIRYQRLVVELLIKNEDILF [A223V], which “effect of a mutation on the interaction” value is on record?
**A.** Its value is “with no effect”.
